Target: the molecule itself
Assay: crystal structure; orthorhombic crystal form, 2.6 Å, nucleotide-free, three copies in the asymmetric unit; contacts between NCS-related neighbouring molecules in the crystal, not the hexameric ring

B1: Hsp104_(1-360) (domain or fragment, S. cerevisiae, UniProt P31539 1-360, looked up)
chain: MNDQTQFTERALTILTLAQKLASDHQHPQLQPIHILAAFIETPEDGSVPYLQNLIEKGRYDYDLFKKVVNRNLVRIPQQQPAPAEITPSYALGKVLQDAAKIQKQQKDSFIAQDHILFALFNDSSIQQIFKEAQVDIEAIKQQALELRGNTRIDSRGADTNTPLEYLSKYAIDMTEQARQGKLDPVIGREEEIRSTIRVLARRIKSNPCLIGEPGIGKTAIIEGVAQRIIDDDVPTILQGAKLFSLDLAALTAGAKYKGDFEERFKGVLKEIEESKTLIVLFIDEIHMLMGNGKDDAANILKPALSRGQLKVIGATTNNEYRSIVEKDGAFERRFQKIEVAEPSVRQTVAILRGLQPKYE
notes: Hsp104, S. cerevisiae, residues 1-360: N domain (4-164), AAA-1 large domain (165-341) and first helix of the AAA-1 small domain (345-356); three independent copies in the crystallographic asymmetric unit; nucleotide-free; also called N-terminal fragment of S. cerevisiae Hsp104; mol 1; source: E. coli BL21-CodonPlus (DE3)-RIL, purified (Ni-NTA, anion exchange, Mono-S); not shown: His6, N-terminal, …
binding result: binds
